Measurements as given in paper PMC11332595.

Tests used:
[1] = target: MapSPARTA (binary complex of TIR-APAZ and Ago), wild type (Maribacter polysiphoniae); experiment: cryo-EM structure
[2] = target: MapSPARTA (binary complex of TIR-APAZ and Ago), wild type (Maribacter polysiphoniae); experiment: cryo-EM structure; remark: listed apart in the source
[3] = target: MapSPARTA (binary complex of TIR-APAZ and Ago), wild type (Maribacter polysiphoniae); experiment: cryo-EM structure; remark: listed apart in the source
[4] = target: MapSPARTA (binary complex of TIR-APAZ and Ago), wild type (Maribacter polysiphoniae); experiment: SEC
[5] = target: MapSPARTA V113R (TIR-APAZ V113R with Ago) (Maribacter polysiphoniae); experiment: SEC
[6] = target: MapSPARTA V113R/D106R/D111R (TIR-APAZ triple mutant with Ago) (Maribacter polysiphoniae); experiment: SEC
[7] = target: T1, MapSPARTA WT (Ago + TIR-APAZ) (Maribacter polysiphoniae, UniProt A0A316E3U6;A0A316E683 1-507;1-450); experiment: BLI
T1 sequence 1: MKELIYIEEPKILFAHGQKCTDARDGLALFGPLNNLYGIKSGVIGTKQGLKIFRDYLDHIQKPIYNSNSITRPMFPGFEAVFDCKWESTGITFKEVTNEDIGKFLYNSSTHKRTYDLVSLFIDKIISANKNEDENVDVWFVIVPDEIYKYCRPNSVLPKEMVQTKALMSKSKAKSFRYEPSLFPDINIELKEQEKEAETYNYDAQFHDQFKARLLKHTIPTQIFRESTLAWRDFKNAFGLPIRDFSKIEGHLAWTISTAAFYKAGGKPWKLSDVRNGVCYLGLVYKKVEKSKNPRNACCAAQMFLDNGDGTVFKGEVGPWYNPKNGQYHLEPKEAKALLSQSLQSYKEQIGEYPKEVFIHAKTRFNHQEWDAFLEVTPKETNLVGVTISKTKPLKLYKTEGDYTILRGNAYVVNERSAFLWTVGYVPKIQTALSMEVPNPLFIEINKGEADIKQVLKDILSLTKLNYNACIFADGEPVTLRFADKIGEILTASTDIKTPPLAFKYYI
T1 sequence 2: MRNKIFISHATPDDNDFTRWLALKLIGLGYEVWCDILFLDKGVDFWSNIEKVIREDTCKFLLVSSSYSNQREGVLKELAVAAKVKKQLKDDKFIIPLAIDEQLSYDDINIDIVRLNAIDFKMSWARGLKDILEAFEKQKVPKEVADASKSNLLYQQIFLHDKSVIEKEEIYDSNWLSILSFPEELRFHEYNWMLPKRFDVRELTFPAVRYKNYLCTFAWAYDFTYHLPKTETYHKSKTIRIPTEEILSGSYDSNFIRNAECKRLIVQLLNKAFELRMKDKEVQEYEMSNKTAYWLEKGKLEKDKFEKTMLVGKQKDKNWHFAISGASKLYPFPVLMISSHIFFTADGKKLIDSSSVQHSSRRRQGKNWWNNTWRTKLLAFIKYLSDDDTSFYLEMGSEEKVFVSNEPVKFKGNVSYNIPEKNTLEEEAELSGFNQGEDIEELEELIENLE

MapSPARTA (binary complex of TIR-APAZ and Ago), wild type
stoichiometry N [1]: 4
stoichiometry N [2]: 2
stoichiometry N [3]: 4
stoichiometry N [4]: 4

MapSPARTA V113R (TIR-APAZ V113R with Ago) (complex)
stoichiometry N [5]: 2

MapSPARTA V113R/D106R/D111R (TIR-APAZ triple mutant with Ago) (complex)
stoichiometry N [6]: 2

B1: guide RNA + biotinylated target DNA (BLI) (DNA:RNA)
RNA: UGACGGCUCUAAUCUAUUAGU
DNA: CAACTAATAGATTAGAGCCGTCAAT
modifications: 5'-phosphate on guide RNA
Kd [7]: 13.5 nM
